Test results as given in patent US10835618.

Legend:
[1] = target: Polyvalent sialyl Le^a-HSA (Isosep AB); assay: ELISA on plates coated with sialyl-Lewis^a-HSA, OD 450nm
[2] = target: Polyvalent sialyl Le^a-HSA (Isosep AB); assay: SPR (Biacore X or 3000), sialyl Le^a-HSA coupled to CM5 chip; major population
[3] = target: Polyvalent sialyl Le^a-HSA (Isosep AB); assay: ELISA on coated sialyl-Lewis^a-HSA
[4] = target: Polyvalent sialyl Le^a-HSA (Isosep AB); assay: SPR (Biacore X or 3000), sialyl Le^a-HSA coupled to CM5 chip; major population; major population (80%), two-population fit
[5] = target: Polyvalent sialyl Le^a-HSA (Isosep AB); assay: SPR (Biacore X or 3000), sialyl Le^a-HSA coupled to CM5 chip; minor population; minor population (20%), two-population fit
[6] = target: Polyvalent sialyl Le^a-HSA (Isosep AB); assay: SPR (Biacore X or 3000), sialyl Le^a-HSA coupled to CM5 chip; minor population
[7] = target: Polyvalent sialyl Le^a-HSA (Isosep AB); assay: SPR, real-time sialyl Le^a-HSA binding, antigen on CM5 chip

FG129 mAb (mouse FG129/29 IgG1 kappa) (antibody), sequence (heavy): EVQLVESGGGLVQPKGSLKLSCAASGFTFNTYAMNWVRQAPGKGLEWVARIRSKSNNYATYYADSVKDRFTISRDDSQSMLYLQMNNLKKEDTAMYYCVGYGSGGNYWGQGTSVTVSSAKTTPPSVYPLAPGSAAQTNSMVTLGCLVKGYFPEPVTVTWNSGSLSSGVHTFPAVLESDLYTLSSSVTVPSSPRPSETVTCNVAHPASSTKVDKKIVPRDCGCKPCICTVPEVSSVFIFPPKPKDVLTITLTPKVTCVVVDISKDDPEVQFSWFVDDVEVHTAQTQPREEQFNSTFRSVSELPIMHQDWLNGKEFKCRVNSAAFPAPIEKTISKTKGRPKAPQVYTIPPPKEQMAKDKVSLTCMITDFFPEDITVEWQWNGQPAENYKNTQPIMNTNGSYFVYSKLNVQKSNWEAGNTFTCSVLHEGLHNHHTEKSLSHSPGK
FG129 mAb (mouse FG129/29 IgG1 kappa) (antibody), sequence (light): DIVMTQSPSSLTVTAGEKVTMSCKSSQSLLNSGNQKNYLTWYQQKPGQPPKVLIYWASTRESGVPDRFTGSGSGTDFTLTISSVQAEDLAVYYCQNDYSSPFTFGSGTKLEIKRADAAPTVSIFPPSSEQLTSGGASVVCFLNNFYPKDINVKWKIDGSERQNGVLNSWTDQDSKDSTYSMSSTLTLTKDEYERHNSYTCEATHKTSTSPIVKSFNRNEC

Row | EC50 [1] [nM] | koff [2] [s⁻¹] | kon [2] [M⁻¹ s⁻¹] | EC50 [3] [nM] | Kd [4] [nM] | koff [5] [s⁻¹] | Kd [6] [pM] | kon [6] [M⁻¹ s⁻¹] | Kd [7] [nM] | koff [7] [s⁻¹] | kon [7] [M⁻¹ s⁻¹] | Substance
1 | 0.186 |  |  |  |  |  |  |  |  |  |  | CA19.9 (anti-sialyl lewis a Mab) (antibody)
2 | 0.287 | 0.00257 | 19700 | 0.1 | 130 | 1.35e-08 | 0.14 | 88500 | 0.2 | 0.00011 | 620000 | FG129 mAb (mouse FG129/29 IgG1 kappa) (antibody)
